Results published in publication PMC5986104.

Biological target: NOTCH2-Myc (human) (UniProt Q04721)
Chain of UniProt Q04721 (Q04721 26-2471): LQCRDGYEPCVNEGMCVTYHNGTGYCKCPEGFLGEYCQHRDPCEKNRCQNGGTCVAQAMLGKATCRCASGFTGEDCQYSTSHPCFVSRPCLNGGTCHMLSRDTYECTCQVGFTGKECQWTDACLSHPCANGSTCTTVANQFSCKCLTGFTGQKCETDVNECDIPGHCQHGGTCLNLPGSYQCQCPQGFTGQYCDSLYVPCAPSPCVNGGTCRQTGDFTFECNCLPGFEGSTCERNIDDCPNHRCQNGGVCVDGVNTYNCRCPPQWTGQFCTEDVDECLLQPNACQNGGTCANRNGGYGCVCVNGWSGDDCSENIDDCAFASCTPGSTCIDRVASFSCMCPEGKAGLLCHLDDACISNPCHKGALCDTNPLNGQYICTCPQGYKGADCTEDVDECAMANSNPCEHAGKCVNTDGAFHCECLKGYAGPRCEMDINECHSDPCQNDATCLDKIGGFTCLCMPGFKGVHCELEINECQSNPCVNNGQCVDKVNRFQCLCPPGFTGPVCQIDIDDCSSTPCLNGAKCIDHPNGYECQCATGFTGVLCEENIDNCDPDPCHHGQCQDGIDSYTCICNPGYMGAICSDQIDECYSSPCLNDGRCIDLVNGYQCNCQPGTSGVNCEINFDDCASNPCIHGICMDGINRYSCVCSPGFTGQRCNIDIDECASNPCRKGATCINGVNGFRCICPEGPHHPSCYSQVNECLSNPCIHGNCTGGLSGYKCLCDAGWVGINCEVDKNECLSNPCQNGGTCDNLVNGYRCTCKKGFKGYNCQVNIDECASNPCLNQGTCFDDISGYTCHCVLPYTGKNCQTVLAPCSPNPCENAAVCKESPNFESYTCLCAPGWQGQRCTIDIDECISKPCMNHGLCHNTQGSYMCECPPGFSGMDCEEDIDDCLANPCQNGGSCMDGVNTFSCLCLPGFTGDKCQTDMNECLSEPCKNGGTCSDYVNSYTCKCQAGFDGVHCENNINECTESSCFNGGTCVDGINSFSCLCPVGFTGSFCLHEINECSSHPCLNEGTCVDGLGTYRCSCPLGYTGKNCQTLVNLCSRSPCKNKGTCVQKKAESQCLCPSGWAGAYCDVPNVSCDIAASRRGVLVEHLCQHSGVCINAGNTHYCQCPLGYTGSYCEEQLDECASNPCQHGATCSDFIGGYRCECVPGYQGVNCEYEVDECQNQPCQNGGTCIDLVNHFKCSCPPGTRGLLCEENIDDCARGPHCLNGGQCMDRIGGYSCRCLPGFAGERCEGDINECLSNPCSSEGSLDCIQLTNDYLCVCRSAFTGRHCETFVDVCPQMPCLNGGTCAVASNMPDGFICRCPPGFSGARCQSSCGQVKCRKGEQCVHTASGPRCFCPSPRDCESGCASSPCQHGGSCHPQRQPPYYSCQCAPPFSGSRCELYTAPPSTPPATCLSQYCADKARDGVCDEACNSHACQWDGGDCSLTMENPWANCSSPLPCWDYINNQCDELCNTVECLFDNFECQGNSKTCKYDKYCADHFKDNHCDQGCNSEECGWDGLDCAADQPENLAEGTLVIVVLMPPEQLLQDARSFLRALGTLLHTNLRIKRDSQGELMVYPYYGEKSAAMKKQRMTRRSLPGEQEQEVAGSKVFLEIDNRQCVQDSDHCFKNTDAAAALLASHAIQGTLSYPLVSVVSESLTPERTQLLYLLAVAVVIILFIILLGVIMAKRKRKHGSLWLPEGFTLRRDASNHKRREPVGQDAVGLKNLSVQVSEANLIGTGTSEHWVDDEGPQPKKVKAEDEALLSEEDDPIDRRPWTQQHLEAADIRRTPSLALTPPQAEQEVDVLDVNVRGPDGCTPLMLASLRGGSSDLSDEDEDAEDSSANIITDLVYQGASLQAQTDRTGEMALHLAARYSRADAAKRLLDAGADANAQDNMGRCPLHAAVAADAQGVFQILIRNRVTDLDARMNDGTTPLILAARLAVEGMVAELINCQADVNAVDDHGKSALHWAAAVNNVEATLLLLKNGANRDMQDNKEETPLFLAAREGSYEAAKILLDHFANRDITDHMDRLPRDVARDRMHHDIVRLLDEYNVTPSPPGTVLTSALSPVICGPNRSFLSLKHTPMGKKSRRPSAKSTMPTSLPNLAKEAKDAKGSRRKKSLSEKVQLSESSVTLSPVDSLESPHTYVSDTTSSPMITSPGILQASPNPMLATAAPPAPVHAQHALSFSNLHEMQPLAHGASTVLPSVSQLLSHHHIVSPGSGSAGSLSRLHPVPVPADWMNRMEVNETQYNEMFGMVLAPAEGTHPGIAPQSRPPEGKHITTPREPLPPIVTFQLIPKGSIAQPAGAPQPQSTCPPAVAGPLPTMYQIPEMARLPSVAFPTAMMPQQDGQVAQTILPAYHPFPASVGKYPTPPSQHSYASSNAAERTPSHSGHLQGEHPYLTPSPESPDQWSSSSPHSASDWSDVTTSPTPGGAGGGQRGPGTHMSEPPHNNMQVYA

Row | NOTCH2-GAL4 reporter activation under baseline conditions, increase (Figure 6J) [%] | NOTCH2-GAL4 reporter activation under baseline conditions, increase (Figure 6H) [%] | NOTCH2-GAL4 reporter activation with JAG2 co-culture, increase (Figure 6I) [%] | Substance
1 | 63 | – | – | NOTCH2NL-HA^L,T197I (from UniProt P0DPK3 26-275) (natural protein)
2 | 21 | – | – | NOTCH2NL^L (from UniProt P0DPK3 26-275) (natural protein)
3 | – | 31 | 53 | NOTCH2NL^Sh,T197I (natural protein)
